The source of these data is publication PMC11535475 (2024).

The labels stand for the following.
T1: SARS-CoV-2 N protein peptide on HLA-A*11:01 (human)
T1 peptide: ATEGALNTPK

T2: SARS-CoV-2 N protein peptide on HLA-A*11:01 (human)
T2 peptide: QQQQGQTVTK

B1: TCR-38-1 (TCR)
alpha TRAV8-6 TRAJ29 CDR3: CAVTTDSGNTPLVF
beta TRBV11-2 TRBJ2-1 CDR3: CASSPAFGEQFF
B2: TCR-22 (TCR)
alpha TRAV19 TRAJ49 CDR3: CALSEALNTGNQFYF
beta TRBV3-1 TRBJ1-6 CDR3: CASSQVAYSPLHF
B3: TCR-20 (TCR)
alpha TRAV13-1 TRAJ47 CDR3: CAAIQEYGNKLVF
beta TRBV5-5 TRBJ2-2 CDR3: CASSPRTLFTGELFF
B4: TCR-10 (TCR)
alpha TRAV29/DV5 TRAJ48 CDR3: CAASDENEKLTF
beta TRBV6-6 TRBJ2-1 CDR3: CASKGGGTSGYEQFF
B5: TCR-18 (TCR)
alpha TRAV6 TRAJ45 CDR3: CALDGSGGGADGLTF
beta TRBV7-8 TRBJ1-3 CDR3: CASSPGRSGNTIYF
B6: TCR-33 (TCR)
alpha TRAV19 TRAJ15 CDR3: CALSEAEAGTALIF
beta TRBV6-2 TRBJ1-2 CDR3: CASSYGSVYGYTF
B7: TCR-09 (TCR)
alpha TRAV29/DV5 TRAJ43 CDR3: CAASPEYNNNDMRF
beta TRBV18 TRBJ2-3 CDR3: CASSRTLGTSGNTQYF
B8: TCR-29-1 (TCR)
alpha TRAV3 TRAJ33 CDR3: CAVRRLMDSNYQLIW
beta TRBV7-6 TRBJ2-1 CDR3: CASSHGTSGSSHEQFF
B9: TCR-24 (TCR)
alpha TRAV29/DV5 TRAJ48 CDR3: CAASEAGGNEKLTF
beta TRBV15 TRBJ1-5 CDR3: CATSREQAGQPQHF
B10: TCR-17 (TCR)
alpha TRAV29/DV5 TRAJ30 CDR3: CAARTGDDKIIF
beta TRBV10-3 TRBJ1-5 CDR3: CAINKQGFNQPQHF
B11: TCR-37-1 (TCR)
alpha TRAV5 TRAJ5 CDR3: CAESDMDMGRRALTF
beta TRBV7-3 TRBJ2-3 CDR3: CASSRRASGIGTDTQYF
B12: TCR-08 (TCR)
alpha TRAV19 TRAJ33 CDR3: CALSEAVDSNYQLIW
beta TRBV7-9 TRBJ1-2 CDR3: CASSLRQGPNYGYTF
B13: TCR-19 (TCR)
alpha TRAV29/DV5 TRAJ30 CDR3: CAAMSMNRDDKIIF
beta TRBV4-1 TRBJ2-1 CDR3: CASSRLPGLAGGTVVNEQFF
B14: TCR-03 (TCR)
alpha TRAV38-2/DV8 TRAJ30 CDR3: CAYRSVPLNRDDKIIF
beta TRBV19 TRBJ1-5 CDR3: CASSKSGTGYQPQHF
B15: TCR-34-1 (TCR)
alpha TRAV14/DV4 TRAJ6 CDR3: CAMREGSKGSYIPTF
beta TRBV28 TRBJ2-7 CDR3: CASRLNPGTVSYEQYF
B16: TCR-28 (TCR)
alpha TRAV19 TRAJ54 CDR3: CALSEAYQGAQKLVF
beta TRBV9 TRBJ2-5 CDR3: CASSVGGTVQETQYF
B17: TCR-32 (TCR)
alpha TRAV3 TRAJ8 CDR3: CAVRVYTGFQKLVF
beta TRBV9 TRBJ2-3 CDR3: CASSSNLQGADTQYF
B18: TCR-23-2 (TCR)
alpha TRAV6 TRAJ21 CDR3: CALWDFNKFYF
beta TRBV27 TRBJ2-5 CDR3: CASSPYSGGQGETQYF

For one test, the target named is SARS-CoV-2 N protein peptide on HLA-A*11:01 (human). Kind of test: activation reporter or marker.
Turning to B1, the binding result is “recognises”. In the case of B2, the binding result is on record as “recognises”.

With B3, the binding result was “recognises”. B4: the binding result is reported as “recognises”. As for B5, the binding result is reported as “recognises”. Turning to B6, the binding result is recorded as “recognises”. On to B7, for which the binding result is reported as “recognises”.

For B8, the binding result was “recognises”. Regarding B9, the binding result is listed as “recognises”. On the same count and under the same terms, as for B10, the entry is “recognises”.

As for B11, the binding result is given as “recognises”. Consider B12, for which the binding result is “recognises”. For B13, the binding result was “recognises”. Consider B14, for which the binding result was “recognises”.

The target of another test is T1, SARS-CoV-2 N protein peptide on …. As to the kind of experiment: activation reporter or marker.
B15: the binding result was “recognises”. As for B16, the binding result is “recognises”. For B17, the binding result is given as “recognises”.

The target of another test is T2, SARS-CoV-2 N protein peptide on …. Kind of test: activation reporter or marker.
B18: the binding result is “recognises”.
